Starred links: 1 amine or outer side, 2 acyl side, 3 side chain; linkers in the order of their positions; H or OH if unused. Non-standard residues stand in square brackets, D forms with d. Groups on a side chain read outwards from the residue. No end group written: not given here. *: point of attachment. C20 diacid = O=C(O)CCCCCCCCCCCCCCCCCCC(=O)*; C18 diacid = O=C(O)CCCCCCCCCCCCCCCCC(=O)*; γGlu = O=C(O)[C@H](CCC(=O)[*:2])N[*:1]; αMeF = C[C@](N)(Cc1ccccc1)C(=O)O; AEEA = NCCOCCOCC(=O)O; Aib = CC(C)(N)C(=O)O

Eight molecules from patent publication US20230357348A1 (AstraZeneca / MedImmune, published 2023) can be followed below.

Assay [1] concerns the target human glucagon receptor (hGCGR) (human, UniProt P47871 26-477). Nature of the assay: cell-based or functional assay.
In assay [2] the target is human GLP-1 receptor (hGLP-1R) (human, UniProt P43220 24-463). Nature of the assay: cell-based or functional assay.

Sequence of human glucagon receptor (hGCGR) (P47871 26-477): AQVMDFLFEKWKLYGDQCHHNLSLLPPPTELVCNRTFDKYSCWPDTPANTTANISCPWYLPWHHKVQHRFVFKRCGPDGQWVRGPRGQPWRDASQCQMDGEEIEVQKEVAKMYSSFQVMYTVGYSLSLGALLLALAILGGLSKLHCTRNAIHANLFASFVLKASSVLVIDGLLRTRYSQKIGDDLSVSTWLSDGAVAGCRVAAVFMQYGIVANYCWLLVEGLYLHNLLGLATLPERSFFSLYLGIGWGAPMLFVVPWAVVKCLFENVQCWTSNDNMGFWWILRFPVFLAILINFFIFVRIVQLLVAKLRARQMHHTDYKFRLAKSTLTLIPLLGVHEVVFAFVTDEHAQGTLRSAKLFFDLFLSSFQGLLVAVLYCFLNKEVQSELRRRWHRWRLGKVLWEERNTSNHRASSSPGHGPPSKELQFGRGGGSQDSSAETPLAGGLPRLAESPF

B1: Peptide 138 (peptide)
peptide: H[Aib]QGTFTSDVSK[αMeF]LDSK([γGlu-γGlu-AEEA-AEEA-γGlu-γGlu-C18 diacid])RAQDFVRWLLE[Aib]G-OH
modifications: N-terminus assumed
SMILES: CC(C)C[C@H](NC(=O)[C@H](Cc1c[nH]c2ccccc12)NC(=O)[C@H](CCCNC(=N)N)NC(=O)[C@@H](NC(=O)[C@H](Cc1ccccc1)NC(=O)[C@H](CC(=O)O)NC(=O)[C@H](CCC(N)=O)NC(=O)[C@H](C)NC(=O)[C@H](CCCNC(=N)N)NC(=O)[C@H](CCCCNC(=O)CC[C@H](NC(=O)CC[C@H](NC(=O)COCCOCCNC(=O)COCCOCCNC(=O)CC[C@H](NC(=O)CC[C@H](NC(=O)CCCCCCCCCCCCCCCCC(=O)O)C(=O)O)C(=O)O)C(=O)O)C(=O)O)NC(=O)[C@H](CO)NC(=O)[C@H](CC(=O)O)NC(=O)[C@H](CC(C)C)NC(=O)[C@](C)(Cc1ccccc1)NC(=O)[C@H](CCCCN)NC(=O)[C@H](CO)NC(=O)[C@@H](NC(=O)[C@H](CC(=O)O)NC(=O)[C@H](CO)NC(=O)[C@@H](NC(=O)[C@H](Cc1ccccc1)NC(=O)[C@@H](NC(=O)CNC(=O)[C@H](CCC(N)=O)NC(=O)C(C)(C)NC(=O)[C@@H](N)Cc1c[nH]cn1)[C@@H](C)O)[C@@H](C)O)C(C)C)C(C)C)C(=O)N[C@@H](CC(C)C)C(=O)N[C@@H](CCC(=O)O)C(=O)NC(C)(C)C(=O)NCC(=O)O
In the case of B1, the “hGluc-R EC50 (pM)” value in assay [1] worked out at 184 pM. For the same molecule, the “hGLP-1R EC50 (pM)” value in assay [2] turned out to be 104 pM.

B2: Peptide 137 (peptide)
peptide: H[Aib]QGTFTSDVSK[αMeF]LDSK([γGlu-γGlu-AEEA-AEEA-γGlu-γGlu-C18 diacid])RAQDFVRWLLEG[Aib]-OH
modifications: N-terminus assumed
SMILES: CC(C)C[C@H](NC(=O)[C@H](CC(C)C)NC(=O)[C@H](Cc1c[nH]c2ccccc12)NC(=O)[C@H](CCCNC(=N)N)NC(=O)[C@@H](NC(=O)[C@H](Cc1ccccc1)NC(=O)[C@H](CC(=O)O)NC(=O)[C@H](CCC(N)=O)NC(=O)[C@H](C)NC(=O)[C@H](CCCNC(=N)N)NC(=O)[C@H](CCCCNC(=O)CC[C@H](NC(=O)CC[C@H](NC(=O)COCCOCCNC(=O)COCCOCCNC(=O)CC[C@H](NC(=O)CC[C@H](NC(=O)CCCCCCCCCCCCCCCCC(=O)O)C(=O)O)C(=O)O)C(=O)O)C(=O)O)NC(=O)[C@H](CO)NC(=O)[C@H](CC(=O)O)NC(=O)[C@H](CC(C)C)NC(=O)[C@](C)(Cc1ccccc1)NC(=O)[C@H](CCCCN)NC(=O)[C@H](CO)NC(=O)[C@@H](NC(=O)[C@H](CC(=O)O)NC(=O)[C@H](CO)NC(=O)[C@@H](NC(=O)[C@H](Cc1ccccc1)NC(=O)[C@@H](NC(=O)CNC(=O)[C@H](CCC(N)=O)NC(=O)C(C)(C)NC(=O)[C@@H](N)Cc1c[nH]cn1)[C@@H](C)O)[C@@H](C)O)C(C)C)C(C)C)C(=O)N[C@@H](CCC(=O)O)C(=O)NCC(=O)NC(C)(C)C(=O)O
Take B2: the “hGluc-R EC50 (pM)” value in assay [1] was 268 pM. Further, the “hGLP-1R EC50 (pM)” value in assay [2] is 143 pM.

B3: Peptide 142 (peptide)
peptide: H[Aib]QGTFTSDVSK[αMeF]LDSK([AEEA-AEEA-γGlu-C18 diacid])RARDFVAWLLE[Aib]G-OH
modifications: N-terminus assumed
SMILES: CC(C)C[C@H](NC(=O)[C@H](Cc1c[nH]c2ccccc12)NC(=O)[C@H](C)NC(=O)[C@@H](NC(=O)[C@H](Cc1ccccc1)NC(=O)[C@H](CC(=O)O)NC(=O)[C@H](CCCNC(=N)N)NC(=O)[C@H](C)NC(=O)[C@H](CCCNC(=N)N)NC(=O)[C@H](CCCCNC(=O)COCCOCCNC(=O)COCCOCCNC(=O)CC[C@H](NC(=O)CCCCCCCCCCCCCCCCC(=O)O)C(=O)O)NC(=O)[C@H](CO)NC(=O)[C@H](CC(=O)O)NC(=O)[C@H](CC(C)C)NC(=O)[C@](C)(Cc1ccccc1)NC(=O)[C@H](CCCCN)NC(=O)[C@H](CO)NC(=O)[C@@H](NC(=O)[C@H](CC(=O)O)NC(=O)[C@H](CO)NC(=O)[C@@H](NC(=O)[C@H](Cc1ccccc1)NC(=O)[C@@H](NC(=O)CNC(=O)[C@H](CCC(N)=O)NC(=O)C(C)(C)NC(=O)[C@@H](N)Cc1c[nH]cn1)[C@@H](C)O)[C@@H](C)O)C(C)C)C(C)C)C(=O)N[C@@H](CC(C)C)C(=O)N[C@@H](CCC(=O)O)C(=O)NC(C)(C)C(=O)NCC(=O)O
Regarding B3, in assay [1], the “hGluc-R EC50 (pM)” value came out at 108 pM. Further, the “hGLP-1R EC50 (pM)” value in assay [2] is 59.4 pM.

B4: Peptide 143 (peptide)
peptide: H[Aib]QGTFTSDVSK[αMeF]LDSK([AEEA-AEEA-γGlu-C18 diacid])RARDFVQWLLE[Aib]G-OH
modifications: N-terminus assumed
SMILES: CC(C)C[C@H](NC(=O)[C@H](Cc1c[nH]c2ccccc12)NC(=O)[C@H](CCC(N)=O)NC(=O)[C@@H](NC(=O)[C@H](Cc1ccccc1)NC(=O)[C@H](CC(=O)O)NC(=O)[C@H](CCCNC(=N)N)NC(=O)[C@H](C)NC(=O)[C@H](CCCNC(=N)N)NC(=O)[C@H](CCCCNC(=O)COCCOCCNC(=O)COCCOCCNC(=O)CC[C@H](NC(=O)CCCCCCCCCCCCCCCCC(=O)O)C(=O)O)NC(=O)[C@H](CO)NC(=O)[C@H](CC(=O)O)NC(=O)[C@H](CC(C)C)NC(=O)[C@](C)(Cc1ccccc1)NC(=O)[C@H](CCCCN)NC(=O)[C@H](CO)NC(=O)[C@@H](NC(=O)[C@H](CC(=O)O)NC(=O)[C@H](CO)NC(=O)[C@@H](NC(=O)[C@H](Cc1ccccc1)NC(=O)[C@@H](NC(=O)CNC(=O)[C@H](CCC(N)=O)NC(=O)C(C)(C)NC(=O)[C@@H](N)Cc1c[nH]cn1)[C@@H](C)O)[C@@H](C)O)C(C)C)C(C)C)C(=O)N[C@@H](CC(C)C)C(=O)N[C@@H](CCC(=O)O)C(=O)NC(C)(C)C(=O)NCC(=O)O
Consider B4, for which the “hGluc-R EC50 (pM)” value in assay [1] was 32.6 pM. Also, the “hGLP-1R EC50 (pM)” value in assay [2] came to 19.1 pM.

B5: Peptide 3 (peptide)
peptide: HSQGS[αMeF]TSDVSK[αMeF]LDSK([γGlu-C18 diacid])AAQDFVQWIANT-NH2
modifications: N-terminus assumed
SMILES: CC[C@H](C)[C@H](NC(=O)[C@H](Cc1c[nH]c2ccccc12)NC(=O)[C@H](CCC(N)=O)NC(=O)[C@@H](NC(=O)[C@H](Cc1ccccc1)NC(=O)[C@H](CC(=O)O)NC(=O)[C@H](CCC(N)=O)NC(=O)[C@H](C)NC(=O)[C@H](C)NC(=O)[C@H](CCCCNC(=O)CC[C@H](NC(=O)CCCCCCCCCCCCCCCCC(=O)O)C(=O)O)NC(=O)[C@H](CO)NC(=O)[C@H](CC(=O)O)NC(=O)[C@H](CC(C)C)NC(=O)[C@](C)(Cc1ccccc1)NC(=O)[C@H](CCCCN)NC(=O)[C@H](CO)NC(=O)[C@@H](NC(=O)[C@H](CC(=O)O)NC(=O)[C@H](CO)NC(=O)[C@@H](NC(=O)[C@](C)(Cc1ccccc1)NC(=O)[C@H](CO)NC(=O)CNC(=O)[C@H](CCC(N)=O)NC(=O)[C@H](CO)NC(=O)[C@@H](N)Cc1c[nH]cn1)[C@@H](C)O)C(C)C)C(C)C)C(=O)N[C@@H](C)C(=O)N[C@@H](CC(N)=O)C(=O)N[C@H](C(N)=O)[C@@H](C)O
As to B5, the “hGluc-R EC50 (pM)” value in assay [1] was 149 pM. Further, the “hGLP-1R EC50 (pM)” value in assay [2] worked out at 69 pM.

B6: Peptide 136 (peptide)
peptide: H[Aib]QGTFTSDVSK[αMeF]LDSK([γGlu-γGlu-AEEA-AEEA-γGlu-γGlu-C18 diacid])RARDFVRWLLE[Aib]G-OH
modifications: N-terminus assumed
SMILES: CC(C)C[C@H](NC(=O)[C@H](Cc1c[nH]c2ccccc12)NC(=O)[C@H](CCCNC(=N)N)NC(=O)[C@@H](NC(=O)[C@H](Cc1ccccc1)NC(=O)[C@H](CC(=O)O)NC(=O)[C@H](CCCNC(=N)N)NC(=O)[C@H](C)NC(=O)[C@H](CCCNC(=N)N)NC(=O)[C@H](CCCCNC(=O)CC[C@H](NC(=O)CC[C@H](NC(=O)COCCOCCNC(=O)COCCOCCNC(=O)CC[C@H](NC(=O)CC[C@H](NC(=O)CCCCCCCCCCCCCCCCC(=O)O)C(=O)O)C(=O)O)C(=O)O)C(=O)O)NC(=O)[C@H](CO)NC(=O)[C@H](CC(=O)O)NC(=O)[C@H](CC(C)C)NC(=O)[C@](C)(Cc1ccccc1)NC(=O)[C@H](CCCCN)NC(=O)[C@H](CO)NC(=O)[C@@H](NC(=O)[C@H](CC(=O)O)NC(=O)[C@H](CO)NC(=O)[C@@H](NC(=O)[C@H](Cc1ccccc1)NC(=O)[C@@H](NC(=O)CNC(=O)[C@H](CCC(N)=O)NC(=O)C(C)(C)NC(=O)[C@@H](N)Cc1c[nH]cn1)[C@@H](C)O)[C@@H](C)O)C(C)C)C(C)C)C(=O)N[C@@H](CC(C)C)C(=O)N[C@@H](CCC(=O)O)C(=O)NC(C)(C)C(=O)NCC(=O)O
In the case of B6, the “hGluc-R EC50 (pM)” value in assay [1] was found to be 509 pM. Also, the “hGLP-1R EC50 (pM)” value in assay [2] was determined as 45.2 pM.

B7: Peptide 141 (peptide)
peptide: H[Aib]QGTFTSDVSK[αMeF]LDSK([AEEA-AEEA-γGlu-C18 diacid])RAQDFVAWLLE[Aib]G-OH
modifications: N-terminus assumed
SMILES: CC(C)C[C@H](NC(=O)[C@H](Cc1c[nH]c2ccccc12)NC(=O)[C@H](C)NC(=O)[C@@H](NC(=O)[C@H](Cc1ccccc1)NC(=O)[C@H](CC(=O)O)NC(=O)[C@H](CCC(N)=O)NC(=O)[C@H](C)NC(=O)[C@H](CCCNC(=N)N)NC(=O)[C@H](CCCCNC(=O)COCCOCCNC(=O)COCCOCCNC(=O)CC[C@H](NC(=O)CCCCCCCCCCCCCCCCC(=O)O)C(=O)O)NC(=O)[C@H](CO)NC(=O)[C@H](CC(=O)O)NC(=O)[C@H](CC(C)C)NC(=O)[C@](C)(Cc1ccccc1)NC(=O)[C@H](CCCCN)NC(=O)[C@H](CO)NC(=O)[C@@H](NC(=O)[C@H](CC(=O)O)NC(=O)[C@H](CO)NC(=O)[C@@H](NC(=O)[C@H](Cc1ccccc1)NC(=O)[C@@H](NC(=O)CNC(=O)[C@H](CCC(N)=O)NC(=O)C(C)(C)NC(=O)[C@@H](N)Cc1c[nH]cn1)[C@@H](C)O)[C@@H](C)O)C(C)C)C(C)C)C(=O)N[C@@H](CC(C)C)C(=O)N[C@@H](CCC(=O)O)C(=O)NC(C)(C)C(=O)NCC(=O)O
On to B7, for which the “hGluc-R EC50 (pM)” value in assay [1] worked out at 392 pM. The “hGLP-1R EC50 (pM)” value in assay [2] came to 264 pM.

Turning to H[Aib]QGTFTSDVSK[αMeF]LDSK([γGlu-γGlu-AEEA-AEEA-γGlu-γGlu-C20 diacid])RAQDFVRWLLE[Aib]G-OH [Peptide 139], in assay [1], the “hGluc-R EC50 (pM)” value came to 984 pM. Moreover, in assay [2], the “hGLP-1R EC50 (pM)” value worked out at 630 pM.
